Ends that are not written are not given here.
B3: TACI-ECD.hFc immunoadhesin (amino acids 2-166 of human TACI fused to human IgG1 Fc) (Fc fusion, not shown: a dimerising Fc or GST)
chain: SGLGRSRRGGRSRVDQEERFPQGLWTGVAMRSCPEEQYWDPLLGTCMSCKTICNHQSQRTCAAFCRSLSCRKEQGKFYDHLLRDCISCASICGQHPKQCAYFCENKLRSPVNLPPELRRQRSGEVENNSDNSGRYQGLEHRGSEASPALPGLKLSADQVALVYST
notes: also called TACI-IgG; TACI-Fc
B4: Flag-LIGHT (ligand, UniProt O43557 82-240, looked up, not shown: small tags and cut ends)
chain: QLIQERRSHEVNPAAHLTGANSSLTGSGGPLLWETQLGLAFLRGLSYHDGALVVTKAGYYYIYSKVQLGGVGCPLGLASTITHGLYKRTPRYPEELELLVSQQSPCGRATSSSRVWWDSSFLGGVVHLEAGEKVVVRVLDERLVRLRDGTRSYFGAFMV
notes: range 82-240; Control ligand; purified on M2 anti-Flag resin; also called Flag-tagged form of LIGHT
B6: Flag-AP-APRIL (ligand)
chain: AVLTQKQKKQHSVLHLVPINATSKDDSDVTEVMWQPALRRGRGLQAQGYGVRIQDAGVYLLYSQVLFQDVTFTMGQVVSREGQGRQETLFRCIRSMPSHPDRAYNSCYSAGVFHLHQGDILSVIIPRARAKLNLSPHGTFLGFVKL
notes: APRIL fused C-terminally to AP, AP fused C-terminally to Flag; not shown: Flag tag of the pCMV-1 Flag vector; human placental alkaline phosphatase
B7: Flag-APRIL (ligand, not shown: small tags and cut ends)
chain: AVLTQKQKKQHSVLHLVPINATSKDDSDVTEVMWQPALRRGRGLQAQGYGVRIQDAGVYLLYSQVLFQDVTFTMGQVVSREGQGRQETLFRCIRSMPSHPDRAYNSCYSAGVFHLHQGDILSVIIPRARAKLNLSPHGTFLGFVKL
notes: also called Flag-tagged APRIL fusion protein

How the values were obtained:
Flag-APRIL [1] = molecular target: B7; assay: ELISA: Flag-APRIL plus control IgG on BCMA-IgG captured by anti-human Fc; bound Flag-APRIL detected with biotinylated anti-Flag
Flag-APRIL [2] = molecular target: B7; assay: ELISA: Flag-APRIL plus control IgG on TACI-IgG captured by anti-human Fc; bound Flag-APRIL detected with biotinylated anti-Flag
[3] = molecular target: T1, TACI (the 265 amino acid form of human TACI, hTACI (265)), expressed on transfected cells (human, UniProt O14836 1-258); assay: conditioned medium on TACI-transfected COS 7 cells, in situ AP staining
T1 sequence: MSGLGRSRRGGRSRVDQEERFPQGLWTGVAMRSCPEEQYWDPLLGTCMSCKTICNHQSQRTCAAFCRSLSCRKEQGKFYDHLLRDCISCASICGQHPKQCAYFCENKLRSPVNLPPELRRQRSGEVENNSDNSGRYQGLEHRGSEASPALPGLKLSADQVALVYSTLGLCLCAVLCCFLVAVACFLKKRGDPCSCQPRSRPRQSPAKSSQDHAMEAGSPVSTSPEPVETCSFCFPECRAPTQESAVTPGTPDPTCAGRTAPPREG
Method: In an in vitro assay, COS 7 cells (ATCC) were seeded into 12 well plates 24 hours before transfection. The cells were then transfected with 1 microgram TACI (the 265 amino acid form of human TACI described above, cloned in pRK5B vector, infra) or vector plasmid (pRK5B) alone. 18-24 hours after transfection, the cells were incubated with conditioned medium containing AP-TALL-1; AP-TNF-alpha; or AP-EDA for 1 hour at room temperature and stained for AP activity in situ as described in Tartaglia et al., Cell, 83:1263-1271 (1995).

Flag-APRIL [4] = molecular target: B7; assay: co-immunoprecipitation and Western blot
Method: One μg of the purified human or Flag-LIGHT (control), Flag-APRIL, or Flag-TALL-1, or Flag-AP-APRIL, or Flag-AP-TALL-1 was incubated with 1 μg of purified human immunoadhesin containing the IgG1-Fc fusion of the ECD of DcR3 (control; Pitti et al., Nature, 396:699-703 (1998)) or TACI or BCMA overnight at 4° C. in duplicate. The TACI-ECD.hFc immunoadhesins were prepared by methods described in Ashkenazi et al., Proc. Natl. Acad. Sci., 88:10535-10539 (1991). The immunoadhesin constructs consisted of amino acids 2-166 of the human TACI polypeptide (see FIG. 1). The TACI-ECD constructs were expressed in CHO cells using a heterologous signal sequence (pre-pro trypsin amino acids 1-17 of pCMV-1 Flag (Sigma)) and encoding the human IgG1 Fc region downstream of the TACI sequence, and then purified by protein A affinity chromatography. The BCMA-ECD immunoadhesins were prepared by methods described in Ashkenazi et al., as cited above. […]
One set of reactions (FIG. 8; Panels A-C) was subjected to immunoprecipitation through the receptor-immunoadhesin with protein A-agarose (Repligen). […] The immunoprecipitates were then analyzed by Western blot with horseradish peroxidase-conjugated anti-Flag M2 mAb (Sigma) to detect the Flag-tagged ligands (FIGS. 8A-C) or horseradish peroxidase-conjugated goat anti-human IgG pAb (Amersham) to detect the receptor-immunoadhesins (FIGS. 8D-F).

Flag-LIGHT = molecular target: B4; assay: co-immunoprecipitation (protein A or anti-Flag M2 agarose) and Western blot
Method: (§1) One μg of the purified human or Flag-LIGHT (control), Flag-APRIL, or Flag-TALL-1, or Flag-AP-APRIL, or Flag-AP-TALL-1 was incubated with 1 μg of purified human immunoadhesin containing the IgG1-Fc fusion of the ECD of DcR3 (control; Pitti et al., Nature, 396:699-703 (1998)) or TACI or BCMA overnight at 4° C. in duplicate. The TACI-ECD.hFc immunoadhesins were prepared by methods described in Ashkenazi et al., Proc. Natl. Acad. Sci., 88:10535-10539 (1991). The immunoadhesin constructs consisted of amino acids 2-166 of the human TACI polypeptide (see FIG. 1). The TACI-ECD constructs were expressed in CHO cells using a heterologous signal sequence (pre-pro trypsin amino acids 1-17 of pCMV-1 Flag (Sigma)) and encoding the human IgG1 Fc region downstream of the TACI sequence, and then purified by protein A affinity chromatography. The BCMA-ECD immunoadhesins were prepared by methods described in Ashkenazi et al., as cited above. The immunoadhesin constructs consisted of amino acids 5-51 of the human BCMA polypeptide (see FIG. 2). The BCMA-ECD constructs were expressed in CHO cells using a heterologous signal sequence (pre-pro trypsin amino acids 1-17 of pCMV-1 Flag (Sigma)) and encoding the human IgG1 Fc region downstream of the BCMA sequence, and then purified by protein A affinity chromatography.
(§2) One set of reactions (FIG. 8; Panels A-C) was subjected to immunoprecipitation through the receptor-immunoadhesin with protein A-agarose (Repligen). The second set of reactions (FIG. 8; panels D-F) was subjected to immunoprecipitation through the Flag-tagged ligand with Anti-Flag mAb-M2-agarose (Sigma). The immunoprecipitates were then analyzed by Western blot with horseradish peroxidase-conjugated anti-Flag M2 mAb (Sigma) to detect the Flag-tagged ligands (FIGS. 8A-C) or horseradish peroxidase-conjugated goat anti-human IgG pAb (Amersham) to detect the receptor-immunoadhesins (FIGS. 8D-F).

[5] = molecular target: T2, Human TNF-alpha, membrane form on transfected COS 7 cells (Flag tag inserted between amino acid 70 and 71) (human, UniProt P01375 1-233); assay: Fc fusion on ligand-transfected COS 7 cells, biotinylated anti-human antibody and Cy3-streptavidin staining
T2 construct: whole, on cells
Method: Additional assays were conducted to determine whether TACI could serve as a receptor for other members of the TNF family of ligands. COS 7 cells (ATCC) were transiently transfected (using Lipofectamine reagent) with membrane forms of various ligands of TNF family. Among the ligands tested were APRIL, TALL-1, 4-1 BBL, CD27L, CD30L, CD40L, EDA, FasL, GITRL, LT-alpha, OX-40L, RANKL, TNF-alpha, TNF-beta and Apo2L/TRAIL.
For the detection of TNF-alpha expression on the cell surface, a Flag tag was inserted between amino acid 70 and amino acid 71 (using the numbering according to the sequence in Pennica et al., supra). An extracellular region of TALL-1 (aa 75-285; see FIG. 3), 4-1BBL (aa 59-254; Goodwin et al., Eur. J. Immunol., 23:2631-2641 (1993)), CD27 ligand (aa 40-193; Goodwin et al., Cell, 73:447-456 (1993)), CD30 ligand (aa 61-234; Smith et al., Cell, 73:1349-1360 (1993)), RANKL (aa 71-317; see WO98/28426), Apo-2 ligand (aa 40-281; see WO97/25428) or Apo-3L (aa 46-249; see WO99/19490) was individually cloned at the BamHI site. […] For APRIL (see FIG. 4) and EDA (Srivastava et al., supra), full length cDNA clones without Flag tag were used.
Transfected COS 7 cells were subsequently incubated with TACI.ECD.hFC immunoadhesin (prepared as described above). […]

[6] = molecular target: B3; assay: co-immunoprecipitation (protein A or anti-Flag M2 agarose) and Western blot
Method: as §1, §2

[7] = molecular target: T3, Flag-AP-TALL-1 (Example 2 construct, TALL-1 amino acids 135-285) (human, UniProt Q9Y275 135-285); assay: conditioned medium on receptor-transfected COS 7 cells, in situ AP staining
T3 construct: not shown: Flag tag of the pCMV-1 Flag vector; human placental alkaline phosphatase

Flag-AP-APRIL = molecular target: B6; assay: as above
[8] = molecular target: T4, DcR3-IgG (IgG1-Fc fusion of the ECD of DcR3) (human, UniProt O95407 30-300, limits assumed); assay: co-immunoprecipitation (protein A or anti-Flag M2 agarose) and Western blot
T4 construct: extracellular domain; Control immunoadhesin; not shown: IgG1 Fc
T4 sequence (looked up): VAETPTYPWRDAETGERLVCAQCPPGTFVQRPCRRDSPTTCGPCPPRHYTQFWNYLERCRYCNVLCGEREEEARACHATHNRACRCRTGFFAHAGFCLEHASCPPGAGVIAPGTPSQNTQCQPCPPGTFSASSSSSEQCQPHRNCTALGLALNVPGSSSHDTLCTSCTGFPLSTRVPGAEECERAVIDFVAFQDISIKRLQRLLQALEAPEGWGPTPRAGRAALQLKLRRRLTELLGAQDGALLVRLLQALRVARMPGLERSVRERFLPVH
Method: as §1, §2

[9] = molecular target: T1, TACI (the 265 amino acid form of human …); assay: conditioned medium on receptor-transfected COS 7 cells, in situ AP staining

T2 sequence (P01375 whole entry, the tested form may be a part): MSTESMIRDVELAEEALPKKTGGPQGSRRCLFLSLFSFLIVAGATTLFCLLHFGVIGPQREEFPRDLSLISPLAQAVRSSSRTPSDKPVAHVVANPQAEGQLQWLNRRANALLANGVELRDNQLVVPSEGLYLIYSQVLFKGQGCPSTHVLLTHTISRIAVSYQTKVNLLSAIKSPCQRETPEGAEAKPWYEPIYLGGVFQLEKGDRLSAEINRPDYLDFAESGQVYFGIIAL
T3 sequence (Q9Y275 135-285): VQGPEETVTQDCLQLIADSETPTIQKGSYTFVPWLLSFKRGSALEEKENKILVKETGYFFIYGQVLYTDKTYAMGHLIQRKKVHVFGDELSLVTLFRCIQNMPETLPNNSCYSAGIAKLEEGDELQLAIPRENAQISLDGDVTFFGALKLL

Which results are given for IgG Ctrl (antibody)?
% Max Binding to BCMA (Flag-APRIL [1]): 100%; % Max Binding to TACI (Flag-APRIL [2]): 100%

B1: AP-EDA (comprising amino acids 241-391 of EDA) (ligand, UniProt Q92838 241-391, looked up)
chain: AGTRENQPAVVHLQGQGSAIQVKNDLSGGVLNDWSRITMNPKVFKLHPRSGELEVLVDGTYFIYSQVEVYYINFTDFASYEVVVDEKPFLQCTRSIETGKTNYNTCYTAGVCLLKARQKIAVKMVHADISINMSKHTTFFGAIRLGEAPAS
notes: range 241-391; Used as conditioned medium; not shown: human placenta alkaline phosphatase (AP)
Does B1 bind [3]?
Result: no binding

B2: BCMA-ECD immunoadhesin (amino acids 5-51 of human BCMA fused to human IgG1 Fc) (Fc fusion, not shown: a dimerising Fc or GST)
chain: AGQCSQNEYFDSLLHACIPCQLRCSSNTPPLTCQRYCNASVTNSVKG
modifications: not fully specified (C-terminus); cysteine pairing not given here; also: C-terminal fusion to human IgG1 Fc (limits not given here)
notes: also called BCMA-IgG; BCMA-Fc
Does B2 bind (Flag-APRIL [4])?
Result: binds

Does B2 bind (Flag-LIGHT)?
Result: no binding (tested: 1 µg of each)

Does B2 bind [5]?
Result: no binding

Does B3 bind [5]?
Result: no binding (tested: 1 µg/ml)

Does B4 bind [6]?
Result: no binding (tested: 1 µg of each)

B5: BCMA, expressed on transfected cells (receptor)
chain: MLQMAGQCSQNEYFDSLLHACIPCQLRCSSNTPPLTCQRYCNASVTNSVKGTNAILWTCLGLSLIISLAVFVLMFLLRKISSEPLKDEFKNTGSGLLGMANIDLEKSRTGDEIILPRGLEYTVEECTCEDCIKSKPKVDSDHCFPLPAMEEGATILVTTKTNDYCKSLPAALSATEIEKSISAR
Does B5 bind [7]?
Result: binds

Does B5 bind (Flag-AP-APRIL)?
Result: binds

Which results are given for B6?
binding result [8]: no binding (tested: 1 µg of each); binding result [9]: binds

Does B7 bind [8]?
Result: no binding (tested: 1 µg of each)

From patent US20060073146A1 (Genentech, published 2006)
